Assay results reported in patent US20150018665.

Columns and labels:
[1] = system: Enterokinase sensor, StrepII-GFP-(linker)-(protease site)-CGRP-Gly fusion with GGSG linker and DDDDK protease site, uncleaved
[2] = system: TEV protease sensor, StrepII-GFP-(linker)-(protease site)-CGRP-Gly fusion with GGSG linker and ENLYFQG protease site, uncleaved
[3] = system: Caspase-3 sensor, StrepII-GFP-(linker)-(protease site)-CGRP-Gly fusion with GGSG linker and DEVD protease site, uncleaved

enterokinase
proteolytic cleavage of the sensor, read by CGRP receptor activation [1]: after being cleaved by their respective protease

Tobacco Etch Virus (TEV) protease
proteolytic cleavage of the sensor, read by CGRP receptor activation [2]: after being cleaved by their respective protease

caspase-3
proteolytic cleavage of the sensor (MALDI spectrum) [3]: MALDI spectrum showing cleavage of caspase sensor
proteolytic cleavage of the sensor, read by CGRP receptor activation [3]: after being cleaved by their respective protease
